Five molecules from PMC10783490, “Biochemical and cellular insights into the Baz2B protein, a non-catalytic subunit of the chromatin remodeling complex” (Nucleic Acids Research, 2023) can be followed below.

One data set deals with T1, BRD Baz2B (Homo sapiens, UniProt Q9UIF8 2060-2164).
T1 sequence: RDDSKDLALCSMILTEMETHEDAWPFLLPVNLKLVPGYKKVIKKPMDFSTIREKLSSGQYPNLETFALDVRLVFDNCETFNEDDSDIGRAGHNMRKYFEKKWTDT
The data set can be described thus: EMSA; up to 112 uM, one pot; EMSA: 20 mM HEPES pH 7.5, 30 mM KCl, 1 mM EDTA, 10 mM (NH4)2SO4, 1 mM DTT, 4 C, 10 nM probe; MST: same plus 0.1 ug/ml BSA, 5 nM probe, 25 C; GST-AT-hook and bromodomain EMSA as in cited refs. Conditions: protein: recombinant, tags: His6.

The target of data set [1] is T2, BRD Brg1 (UniProt P51532 1453-1564). The data set can be described thus: EMSA; one pot with triplex and duplex; EMSA: 20 mM HEPES pH 7.5, 30 mM KCl, 1 mM EDTA, 10 mM (NH4)2SO4, 1 mM DTT, 4 C, 10 nM probe; MST: same plus 0.1 ug/ml BSA, 5 nM probe, 25 C; GST-AT-hook and bromodomain EMSA as in cited refs. The conditions noted are these: protein: recombinant; tags: His6.
T2 sequence (P51532 1453-1564): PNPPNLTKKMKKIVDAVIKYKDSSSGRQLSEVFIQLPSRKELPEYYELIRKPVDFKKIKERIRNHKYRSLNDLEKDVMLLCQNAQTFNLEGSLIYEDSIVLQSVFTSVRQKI

Data set [2] addresses T2, BRD Brg1. The data set can be described thus: EMSA; one pot with triplex and TFO; EMSA: 20 mM HEPES pH 7.5, 30 mM KCl, 1 mM EDTA, 10 mM (NH4)2SO4, 1 mM DTT, 4 C, 10 nM probe; MST: same plus 0.1 ug/ml BSA, 5 nM probe, 25 C; GST-AT-hook and bromodomain EMSA as in cited refs. Conditions: protein: recombinant; tags: His6; blunt.
Data set [3] deals with T2, BRD Brg1. The data set can be described thus: EMSA; one pot with duplex and TFO; EMSA: 20 mM HEPES pH 7.5, 30 mM KCl, 1 mM EDTA, 10 mM (NH4)2SO4, 1 mM DTT, 4 C, 10 nM probe; MST: same plus 0.1 ug/ml BSA, 5 nM probe, 25 C; GST-AT-hook and bromodomain EMSA as in cited refs. Conditions: protein: recombinant; tags: His6; triplex, third strand TFO.
The target in the next data set is T3, TAM-AT1-AT2 Baz2B R765E (Homo sapiens, UniProt Q9UIF8 721-884, R765E).
T3 sequence: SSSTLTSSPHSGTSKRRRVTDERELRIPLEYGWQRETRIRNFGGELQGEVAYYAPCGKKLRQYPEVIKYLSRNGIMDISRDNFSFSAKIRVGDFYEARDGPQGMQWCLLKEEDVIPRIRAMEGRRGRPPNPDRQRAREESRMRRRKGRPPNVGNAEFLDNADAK
The data set can be described thus: EMSA; EMSA: 20 mM HEPES pH 7.5, 30 mM KCl, 1 mM EDTA, 10 mM (NH4)2SO4, 1 mM DTT, 4 C, 10 nM probe; MST: same plus 0.1 ug/ml BSA, 5 nM probe, 25 C; GST-AT-hook and bromodomain EMSA as in cited refs. Conditions: protein: recombinant; tags: His6; blunt.

In another data set the target is T4, TAM-AT1-AT2 Baz2B Q767A (Homo sapiens, UniProt Q9UIF8 721-884, Q767A).
T4 sequence: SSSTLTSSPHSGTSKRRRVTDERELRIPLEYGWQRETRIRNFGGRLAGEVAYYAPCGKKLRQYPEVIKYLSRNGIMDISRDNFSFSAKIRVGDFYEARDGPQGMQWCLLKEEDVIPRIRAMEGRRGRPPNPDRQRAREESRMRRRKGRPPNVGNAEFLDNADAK
The description is as above. The conditions noted are these: protein: recombinant; tags: His6; blunt.

The target of the next data set is T5, TAM-AT1-AT2 Baz2B R781E (Homo sapiens, UniProt Q9UIF8 721-884, R781E).
T5 sequence: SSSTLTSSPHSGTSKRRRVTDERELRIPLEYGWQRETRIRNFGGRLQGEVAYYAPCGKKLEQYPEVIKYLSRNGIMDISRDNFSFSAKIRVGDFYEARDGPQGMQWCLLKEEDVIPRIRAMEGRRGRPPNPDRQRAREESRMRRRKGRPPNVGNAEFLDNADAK
The data set is described as above. The conditions noted are these: protein: recombinant; tags: His6; blunt.

For data set [4], the target named is T6, TAM-AT1-AT2 Baz2B (Homo sapiens, UniProt Q9UIF8 721-884).
T6 sequence: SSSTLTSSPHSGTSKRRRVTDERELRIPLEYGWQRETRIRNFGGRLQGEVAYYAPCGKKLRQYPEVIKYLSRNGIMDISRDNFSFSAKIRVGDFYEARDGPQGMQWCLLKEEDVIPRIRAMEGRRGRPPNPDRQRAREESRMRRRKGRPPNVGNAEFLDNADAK
The description is as above. The conditions noted are these: protein: recombinant; tags: His6; blunt.

A further data set has as its target T7, TAM-AT1-AT2 Baz2B R837E (Homo sapiens, UniProt Q9UIF8 721-884, R837E).
T7 sequence: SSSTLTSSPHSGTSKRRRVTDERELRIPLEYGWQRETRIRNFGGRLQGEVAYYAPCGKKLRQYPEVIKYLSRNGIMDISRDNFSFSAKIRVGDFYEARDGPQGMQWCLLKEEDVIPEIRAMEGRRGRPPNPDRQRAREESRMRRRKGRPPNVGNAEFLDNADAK
The data set is described as above. Conditions: protein: recombinant; tags: His6; blunt.

Another data set has as its target T8, TAM-AT1-AT2 Baz2B L766A (Homo sapiens, UniProt Q9UIF8 721-884, L766A).
T8 sequence: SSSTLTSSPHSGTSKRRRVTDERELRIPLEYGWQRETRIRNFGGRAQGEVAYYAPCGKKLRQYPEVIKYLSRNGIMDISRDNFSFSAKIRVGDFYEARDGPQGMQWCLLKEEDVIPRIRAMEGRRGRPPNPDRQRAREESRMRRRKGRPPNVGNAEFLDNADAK
Described as above. The conditions noted are these: protein: recombinant; tags: His6; blunt.

The next data set has as its target T9, TAM Baz2B (Homo sapiens, UniProt Q9UIF8 721-843).
T9 sequence: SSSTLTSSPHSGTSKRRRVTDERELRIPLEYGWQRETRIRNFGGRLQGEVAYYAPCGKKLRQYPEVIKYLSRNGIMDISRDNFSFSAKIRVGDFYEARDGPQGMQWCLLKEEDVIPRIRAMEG
Described as above. The conditions noted are these: protein: recombinant; tags: His6; blunt.

In a further data set the target is T10, TAM-AT1-AT2 Baz2B R760E (Homo sapiens, UniProt Q9UIF8 721-884, R760E).
T10 sequence: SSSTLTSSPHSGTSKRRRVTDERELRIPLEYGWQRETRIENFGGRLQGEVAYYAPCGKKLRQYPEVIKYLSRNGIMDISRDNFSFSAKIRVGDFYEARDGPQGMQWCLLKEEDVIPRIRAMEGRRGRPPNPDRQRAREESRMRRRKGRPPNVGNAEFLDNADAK
Described as above. The conditions noted are these: protein: recombinant; tags: His6; blunt.

The target of data set [5] is T6, TAM-AT1-AT2 Baz2B. The data set can be described thus: EMSA; mutant series; EMSA: 20 mM HEPES pH 7.5, 30 mM KCl, 1 mM EDTA, 10 mM (NH4)2SO4, 1 mM DTT, 4 C, 10 nM probe; MST: same plus 0.1 ug/ml BSA, 5 nM probe, 25 C; GST-AT-hook and bromodomain EMSA as in cited refs. Conditions: protein: recombinant; tags: His6; blunt.
The next data set has as its target T11, GST-AT1-AT2 Baz2A (UniProt Q91YE5 641-674).
T11 chain: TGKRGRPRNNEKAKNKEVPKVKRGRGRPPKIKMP
The data set can be described thus: EMSA; 1.25 uM DNA, 3.6 or 14.4 uM protein; EMSA: 20 mM HEPES pH 7.5, 30 mM KCl, 1 mM EDTA, 10 mM (NH4)2SO4, 1 mM DTT, 4 C, 10 nM probe; MST: same plus 0.1 ug/ml BSA, 5 nM probe, 25 C; GST-AT-hook and bromodomain EMSA as in cited refs. The conditions noted are these: protein: recombinant; tags: GST; label: none (SybrSafe); blunt.

Regarding GGAGGAAAAAAGAAAAAAAAAAAAAAAGA (ssDNA) [TFO #5 (29 nt ssDNA)], the binding result with BRD Baz2B and with BRD Brg1 [1] was “no binding” in each case.

B1: En3_D 29 bp dsDNA (dsDNA)
DNA 1: TCTTTTTTTTTTTTTTTCTTTTTTCCTCC
DNA 2: GGAGGAAAAAAGAAAAAAAAAAAAAAAGA
As to B1, the figures for the binding result with BRD Baz2B (blunt) and in the data set with BRD Brg1 [2] were “no binding” and “binds”, respectively.

B2: DNA triplex En3_D + TFO #5 (structured_DNA)
DNA 1: TCTTTTTTTTTTTTTTTCTTTTTTCCTCC
DNA 2: GGAGGAAAAAAGAAAAAAAAAAAAAAAGA
DNA 3: GGAGGAAAAAAGAAAAAAAAAAAAAAAGA
As for B2, the binding result in the data set with BRD Baz2B (triplex, third strand TFO) is listed as “no binding”; with BRD Brg1 [3], “binds”.

B3: 45 bp dsDNA FLP015/FLP016 (dsDNA)
DNA 1: ATCAGTTCTCCGGGTTGTCAGGTCGACCAGTTGTTCCTTTGAGGT
DNA 2: ACCTCAAAGGAACAACTGGTCGACCTGACAACCCGGAGAACTGAT
As for B3, the Kd with TAM-AT1-AT2 Baz2B R765E turned out to be 0.0308 ± 0.0069 µM; with TAM-AT1-AT2 Baz2B Q767A, 0.44 ± 0.256 µM; in the data set with TAM-AT1-AT2 Baz2B R781E, 0.232 ± 0.101 µM; in the data set with TAM-AT1-AT2 Baz2B [4], 0.0822 µM; in the data set with TAM-AT1-AT2 Baz2B R837E, 0.108 ± 0.0093 µM; in the data set with TAM-AT1-AT2 Baz2B L766A it was 0.0981 ± 0.0295 µM. Further, the Kd was 0.468 µM with TAM Baz2B, 0.0936 ± 0.0382 µM with TAM-AT1-AT2 Baz2B R760E and 0.116 ± 0.0509 µM in the data set with TAM-AT1-AT2 Baz2B [5].

B4: rDNA enhancer (En dsDNA) (dsDNA)
DNA 1: TGGATCTTTTTTTTTTTTTTTCTTTTTCCTCCA
DNA 2: TGGAGGAAAAAGAAAAAAAAAAAAAAAGATCCA
Take B4: in the data set with GST-AT1-AT2 Baz2A, the binding result was “binds”.
